T1: fragment DIR-II (last 27 amino acids of the sequence encoded by the retained intron of DIR) (human)
T1 construct: also called target fragment DIR-II
T1 peptide: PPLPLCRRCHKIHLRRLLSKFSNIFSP

T2: DNA damage-inducible transcript 4-like (DDIT4L) intron retention spliced product (DIR) protein (human)
T2 construct: 84 aa spliced product peptide; also called QDLIR; human DIR
T2 chain: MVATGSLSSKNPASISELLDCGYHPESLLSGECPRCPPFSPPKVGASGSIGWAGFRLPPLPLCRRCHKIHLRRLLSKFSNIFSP


Tests used:
[1] = molecular target: T1, fragment DIR-II (last 27 amino acids of …); assay: ELISA, DIR-II coated; mAb (1 mg/mL) diluted 1:2k
Method: (§1) The binding activity of the above antibodies IR-II-1 to IR-II-10 to fragments DIR-II was detected. The method specifically comprises:
(§2) The target fragment DIR-II was coated on a 96-well plate using a coating buffer and blocked with a blocking buffer. […] Then, a secondary antibody with horseradish peroxidase (1:5k) was added and incubated at 37° C. After washing three times, an appropriate volume of TMB substrate solution was added, and the resulting mixture was incubated at 37° C. for a certain period of time, and then placed under a microplate reader to record the absorbance value of the sample at a wavelength of 450 nm.

[2] = molecular target: T1, fragment DIR-II (last 27 amino acids of …); assay: ELISA, DIR-II coated; mAb (1 mg/mL) diluted 1:6k
Method: as §1, §2

[3] = molecular target: T1, fragment DIR-II (last 27 amino acids of …); assay: ELISA, DIR-II coated; mAb (1 mg/mL) diluted 1:18k
Method: as §1, §2

[4] = molecular target: T1, fragment DIR-II (last 27 amino acids of …); assay: ELISA, DIR-II coated; mAb (1 mg/mL) diluted 1:54k
Method: as §1, §2

[5] = molecular target: T1, fragment DIR-II (last 27 amino acids of …); assay: ELISA, DIR-II coated; mAb (1 mg/mL) diluted 1:162k
Method: as §1, §2

[6] = molecular target: T1, fragment DIR-II (last 27 amino acids of …); assay: ELISA, DIR-II coated; mAb (1 mg/mL) diluted 1:486k
Method: as §1, §2

[7] = molecular target: T1, fragment DIR-II (last 27 amino acids of …); assay: ELISA, DIR-II coated; mAb (1 mg/mL) diluted 1:1458k
Method: as §1, §2

[8] = molecular target: T1, fragment DIR-II (last 27 amino acids of …); assay: ELISA, DIR-II coated; mAb (1 mg/mL) diluted 1:4374k
Method: as §1, §2

[9] = molecular target: T2, DNA damage-inducible transcript 4-like …; assay: sandwich ELISA, capture antibody GL Biochem AB009458, detection antibody IR-II-6 (method of paragraph 444)
Method: Methods for collecting venous blood and obtaining plasma: The blood was collected from the vein in cubital fossa of a patient into an EDTA vacuum tube by using the vacuum blood collection technique, and the tube was immediately inverted gently 8 times to fully mix the blood and an anticoagulant. Then, the tube was transported to the laboratory on ice, centrifuged for 10 min at 1500 g at 4° C., and the supernatant was aspirated, aliquoted, and stored at −80° C.
ELISA method for plasma: The plasma sample was diluted at 1:1 with 1× diluent (OBT1998G, purchased from Bio-Rad); then, 100 μl of a blocking solution was added using a pipette for blockage for 1 h at 37° C.; then, 100 μl of a proportionally diluted standard and diluted plasma were added into plate wells coated with capture antibodies (GL Biochem, AB009458) by using the pipette, the tip of which was changed for each sampling; the resulting mixture was incubated for 1.5 h at 37° C.; the liquid in each well was removed, and the well was washed 3 times with 100 μl 1× washing solution (BUF031C, purchased from Bio-Rad); 100 μl of detection antibody (i. e., the DIR antibody IR-II-6, of which a VH amino acid sequence was as set forth in SEQ ID NO. 58, and of which a VL amino acid sequence was as set forth in SEQ ID NO. […]

Binder | absorbance at 450 nm [1] | absorbance at 450 nm [2] | absorbance at 450 nm [3] | absorbance at 450 nm [4] | absorbance at 450 nm [5] | absorbance at 450 nm [6] | absorbance at 450 nm [7] | absorbance at 450 nm [8] | binding result [9]
DIR antibody IR-II-1 (antibody, V domains shown, Monoclonal antibody) VH: QVQLKESGAELMKPGASVKISCKATGYTFSSYWIEWVKQRPGHGLEWIGEILPGSGTTNYNDKFKGKATFTADTSSNTAYMQLSNLTSEDSAVYYCARSYDGYYVFDYWGQGTTLTVSS VL: DIELTQSPASLAVSLGQRATISCKASQSVDYDGDSYMNWYQQKPGQPPKLLIYAASNLESGIPARFSGSGSGTDFTLNIHPVEEEDAATYYCQQSNEDPRTFGGGTKLEIK | 3.14 absorbance (450 nm) | 2.98 absorbance (450 nm) | 0.818 absorbance (450 nm) | 0.264 absorbance (450 nm) | 0.109 absorbance (450 nm) | 0.0656 absorbance (450 nm) | 0.0653 absorbance (450 nm) | 0.0934 absorbance (450 nm) | –
DIR antibody IR-II-8 (antibody, V domains shown, Monoclonal antibody) VH: QVQLQQSGAELMKPGASVKISCKATGYTFSNYWIEWVKQRPGHGLEWIGEILPGSGSTNYNEKFKGKATFTADTSSNTAYMQLSSLTSEDSAVYYCARSGMITTRGDYFAMDYWGQGTSVTVSS VL: DIELTQSPASLAVSLGQRATISCKASQSVDYDGESYMNWYQQKPGQPPKLLIYAASNLESGIPARFSGSGSGTDFTLNIHPVEEEDAATYYCQQSNDDPRTFGGGTKLEIK | 3.2 absorbance (450 nm) | 0.87 absorbance (450 nm) | 0.257 absorbance (450 nm) | 0.138 absorbance (450 nm) | 0.0911 absorbance (450 nm) | 0.0864 absorbance (450 nm) | 0.0906 absorbance (450 nm) | 0.0887 absorbance (450 nm) | –
DIR antibody IR-II-4 (antibody, V domains shown, Monoclonal antibody) VH: QVQLQQSGAELMKPGASVKISCKATGYTFSSYWIEWVKQRPGHGLEWIGEILPGSGSTNYNEKFKGKATFTADTSSNTAYMQLNSLTSEDSAVYYCARTDDGYLSYFAMDYWGQGTSVTVSS VL: DILMTQTPASLAVSLGQRATISCKASQSVDYDGDSYMNWYQQKPGQPPKLLIYAASNLESGIPARFSGSGSGTDFTLNIHPVEEEDAATYYCQQSNEDPRTFGGGTKLEIK | 3.3 absorbance (450 nm) | 1.77 absorbance (450 nm) | 0.555 absorbance (450 nm) | 0.186 absorbance (450 nm) | 0.136 absorbance (450 nm) | 0.0955 absorbance (450 nm) | 0.0751 absorbance (450 nm) | 0.0775 absorbance (450 nm) | –
DIR antibody IR-II-6 (antibody, V domains shown, Monoclonal antibody; also called detection antibody) VH: QVQLQQSGAELMKPGASVKISCKATGYTFSRYWIEWIKQRPGHGLEWIGEILPGSYYSTNSNEKFKGKATFTADTSSNTAYMQLSSLTSEDSAVYYCARSGVITTRGDYFAMDYWGHGTSVTVSS VL: DIVLTQSPASLAVSLGQRATISCKASQSVDYDGDSYMNWYQQKPGQPPKLLMYAASNLESGIPARFSGSGSGTDFTLNIHPVEEEDAATYYCQQSNEDPRTFGGGTKLEIK | 3.09 absorbance (450 nm) | 3.18 absorbance (450 nm) | 2.01 absorbance (450 nm) | 0.78 absorbance (450 nm) | 0.414 absorbance (450 nm) | 0.306 absorbance (450 nm) | 0.2 absorbance (450 nm) | 0.18 absorbance (450 nm) | binds
DIR antibody IR-II-2 (antibody, V domains shown, Monoclonal antibody) VH: EVQLQQSGAELMKPGASVKISCKATGYTFSSYWIEWVKQRPGHGLEWIGEILPGSGTTNYNEKFKGKATFTVDTSSNTAYMQLSSLTSEDSAVYYCARSGVITARGDYYAMDYWGQGTSVTVSS VL: DIVMTQSPASLAVSLGQRATISCKASQSVDYDGDSYMNWYQQKPGQPPKLLIYAASNLDSGIPARFSGSGSGTDFTLNIHPVEEEDAATYYCQQSNEDPRTFGGGTKLEIK | 3.23 absorbance (450 nm) | 1.62 absorbance (450 nm) | 0.823 absorbance (450 nm) | 0.193 absorbance (450 nm) | 0.14 absorbance (450 nm) | 0.112 absorbance (450 nm) | 0.0839 absorbance (450 nm) | 0.115 absorbance (450 nm) | –
DIR antibody IR-II-7 (antibody, V domains shown, Monoclonal antibody) VH: QVQLQQSGAELMKPGASVKISCKATGYTFSNYWIEWIKQRPGHGLEWIGEILPGSYYSTNYNEKFKDKATFTADTSSNTAYIQLSSLTSEDSAVYYCARSGIITTRGDYFAMDYWGQGTSVTVSS VL: DIVLTQSPASLAVSLGQRATISCKASQSVDYDGDSYMNWYQQKPGQPPKLLMYAASNLESGIPARFSGSGSGTDFTLNIHPVEEEDAATYYCQQSNEDPRTFGGGTKLEIK | 3.09 absorbance (450 nm) | 2.98 absorbance (450 nm) | 1.16 absorbance (450 nm) | 0.35 absorbance (450 nm) | 0.164 absorbance (450 nm) | 0.121 absorbance (450 nm) | 0.103 absorbance (450 nm) | 0.0867 absorbance (450 nm) | –
DIR antibody IR-II-5 (antibody, V domains shown, Monoclonal antibody) VH: QVQLQQSGAEVMKPGASVKISCKATGYTFSSYWIEWIKQRPGHGLEWIGEILPGGYNTNSNENFKGKATFTADTSSNTAYMQLSSLTSEDSAVYYCARSGMITTTGDYYAMDYWGQGTSVTVSS VL: DIELTQSPASLAVSLGQRATISCKASQSVDYDGESYMNWYQQKPGQPPKLLIYAASNLESGIPARFSGSGSGTDFTLNIHPVEEEDAATYYCQQSNDDPRTFGGGTKLEIK | 3.24 absorbance (450 nm) | 1.31 absorbance (450 nm) | 0.387 absorbance (450 nm) | 0.159 absorbance (450 nm) | 0.19 absorbance (450 nm) | 0.285 absorbance (450 nm) | 0.0911 absorbance (450 nm) | 0.0868 absorbance (450 nm) | –
DIR antibody IR-II-3 (antibody, V domains shown, Monoclonal antibody) VH: EVQLQQSGAELMKPGASVKISCKATGYTFSNYWIEWIKQRPGHGLEWIGEILPGSYYSTNYNEKFKGKATFTADTSSNTAYIQLSSLTSEDSAVYYCARSGMITTRGDYFAMDYWGQGTSVTVSS VL: not shown | 3.05 absorbance (450 nm) | 3.05 absorbance (450 nm) | 1.27 absorbance (450 nm) | 0.4 absorbance (450 nm) | 0.366 absorbance (450 nm) | 0.173 absorbance (450 nm) | 0.166 absorbance (450 nm) | 0.153 absorbance (450 nm) | –
DIR antibody IR-II-9 (antibody, V domains shown, Monoclonal antibody) VH: QVQLQQSGAELMKPGASVKISCKATGYTFSRYWIEWIKQRPGHGLEWIGEILPGSYYSTNSNEKFKGKATFTADTSSNTAYMQLSSLTSEDSAVYYCARSGVITTRGDYFAMDYWGHGTSVTVSS VL: DIELTQSPASLAVSLGQRATISCKASQSVDYDGESYMNWYQQKPGQPPKLLIYAASNLESGIPARFSGSGSGTDFTLNIHPVEEEDAATYYCQQSYDDPRAFGGGTKLEIK | 3.11 absorbance (450 nm) | 3.27 absorbance (450 nm) | 1.87 absorbance (450 nm) | 0.622 absorbance (450 nm) | 0.318 absorbance (450 nm) | 0.207 absorbance (450 nm) | 0.169 absorbance (450 nm) | 0.193 absorbance (450 nm) | –
DIR antibody IR-II-10 (A2D10) (antibody, V domains shown, Monoclonal antibody) VH: EVQLQQSGPELVKPGASVKISCKTSGYTFTEYTMHWVKQSHGKSLEWIGGIYPHNGGTNYNQKFKGKATLTVDKSSSTAYMELRSLTSEDSAVYYCTEDLTFDYWGQGTTLTVSS VL: DIQMTQTTSSLSASLGDRVTISCSASQDISNYLNWYQQKPDGTVKLLIYYTSSLHSGVPSRFSGSGSGTDYSLTISNLEPEDIATYHCLQYSKLPFTFGSGTKLEIK | 2.01 absorbance (450 nm) | 0.472 absorbance (450 nm) | 0.142 absorbance (450 nm) | 0.0783 absorbance (450 nm) | 0.0517 absorbance (450 nm) | 0.0517 absorbance (450 nm) | 0.0501 absorbance (450 nm) | 0.0427 absorbance (450 nm) | –
